According to the supplement of paper PMC9112550, “Optimization of the antimicrobial peptide Bac7 by deep mutational scanning” (BMC Biology, 2022):

System: Escherichia coli TOP10
Experiment: shrunken log2 fold change of peptide-encoding DNA abundance (4.5 h post-induction vs induction); higher = less antimicrobial activity (less host growth inhibition)
Settings: time post-induction: 4.5 h; library: site-saturation at positions 5, 18, 19, 20
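Note: peptides expressed intracellularly from a pBAD plasmid library in pooled LB shake-flask culture, induced with 0.3% L-arabinose, DNA abundance read by NGS, three biological replicates, DESeq2 with apeglm shrinkage.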

Sequence	shrunken log2 fold change
RRIRWRPPRLPRPRPRPAMKPRP	-0.0119
RRIRRRPPRLPRPRPRPMYSPRP	-0.0989
RRIRGRPPRLPRPRPRPKHRPRP	0.449
RRIRERPPRLPRPRPRPFTNPRP	-0.457
RRIRTRPPRLPRPRPRPYLVPRP	-0.489
RRIRQRPPRLPRPRPRPPEGPRP	0.228
RRIRERPPRLPRPRPRPPTEPRP	0.0778
RRIRIRPPRLPRPRPRPTREPRP	0.255
RRIRIRPPRLPRPRPRPDGDPRP	-0.176
RRIRPRPPRLPRPRPRPEWTPRP	0.22
RRIRDRPPRLPRPRPRPVTQPRP	-0.0479
RRIRQRPPRLPRPRPRPGQNPRP	-0.223
RRIRQRPPRLPRPRPRPVAWPRP	0.128
RRIRVRPPRLPRPRPRPFELPRP	0.0193
RRIRHRPPRLPRPRPRPCPYPRP	-0.546
RRIRKRPPRLPRPRPRPRVQPRP	0.386
RRIRGRPPRLPRPRPRPMYCPRP	0.0756
RRIRDRPPRLPRPRPRPVIIPRP	-0.316
RRIRDRPPRLPRPRPRPPTDPRP	0.564
RRIRCRPPRLPRPRPRPFLYPRP	-0.513
RRIRDRPPRLPRPRPRPENCPRP	-0.0102
RRIRCRPPRLPRPRPRPTNDPRP	-0.218
RRIRMRPPRLPRPRPRPLNIPRP	-0.163
RRIRARPPRLPRPRPRPVCMPRP	0.226
RRIRRRPPRLPRPRPRPHQKPRP	0.474

Sequence	shrunken log2 fold change
RRIRGRPPRLPRPRPRPLYFPRP	-0.131
RRIRKRPPRLPRPRPRPKYSPRP	-0.13
RRIRARPPRLPRPRPRPFDHPRP	-0.394
RRIRVRPPRLPRPRPRPMIHPRP	-0.465
RRIRHRPPRLPRPRPRPECNPRP	-0.0866
RRIRHRPPRLPRPRPRPAMTPRP	-0.00367
RRIRQRPPRLPRPRPRPPNGPRP	-0.00787
RRIRLRPPRLPRPRPRPLNHPRP	-0.355
RRIRARPPRLPRPRPRPIVGPRP	-0.0201
RRIRKRPPRLPRPRPRPRGSPRP	0.319
RRIRARPPRLPRPRPRPHWVPRP	0.0153
RRIRSRPPRLPRPRPRPSGMPRP	-0.311
RRIRFRPPRLPRPRPRPSMLPRP	-0.47
RRIRDRPPRLPRPRPRPSNQPRP	-0.315
RRIRLRPPRLPRPRPRPWMFPRP	-0.108
RRIRVRPPRLPRPRPRPCRIPRP	-0.385
RRIRSRPPRLPRPRPRPILRPRP	-0.0847
RRIRWRPPRLPRPRPRPSLYPRP	-0.402
RRIRWRPPRLPRPRPRPSTDPRP	0.0398
RRIRTRPPRLPRPRPRPIGQPRP	-0.0623
RRIRTRPPRLPRPRPRPTNAPRP	0.209
RRIRDRPPRLPRPRPRPVTTPRP	0.0135
RRIRCRPPRLPRPRPRPGRNPRP	-0.0027
RRIRCRPPRLPRPRPRPSFQPRP	-0.384
RRIRYRPPRLPRPRPRPLVHPRP	0.0162

Sequence	shrunken log2 fold change
RRIRARPPRLPRPRPRPKKKPRP	0.119
RRIRVRPPRLPRPRPRPDCYPRP	-0.15
RRIRFRPPRLPRPRPRPVFHPRP	-0.598
RRIRIRPPRLPRPRPRPSHDPRP	-0.527
RRIRHRPPRLPRPRPRPIRGPRP	0.0308
RRIRGRPPRLPRPRPRPNCWPRP	0.303
RRIRMRPPRLPRPRPRPTEHPRP	0.443
RRIRIRPPRLPRPRPRPVPGPRP	-0.0459
RRIRCRPPRLPRPRPRPKTTPRP	-0.000868
RRIRNRPPRLPRPRPRPVCVPRP	-0.04
RRIRPRPPRLPRPRPRPFEYPRP	-0.0601
RRIRVRPPRLPRPRPRPNAWPRP	0.0914
RRIRERPPRLPRPRPRPVVFPRP	-0.0884
RRIRQRPPRLPRPRPRPNVVPRP	0.0298
RRIRTRPPRLPRPRPRPVWDPRP	0.13
RRIRERPPRLPRPRPRPLVYPRP	-0.309
RRIRQRPPRLPRPRPRPRWNPRP	-0.0799
RRIRFRPPRLPRPRPRPNHFPRP	-0.0292
RRIRIRPPRLPRPRPRPYPIPRP	-0.139
RRIRPRPPRLPRPRPRPNLVPRP	-0.225
RRIRPRPPRLPRPRPRPCVPPRP	-0.134
RRIRLRPPRLPRPRPRPQWVPRP	-0.0367
RRIRRRPPRLPRPRPRPCKYPRP	-0.915
RRIRDRPPRLPRPRPRPLKQPRP	0.681
RRIRWRPPRLPRPRPRPKGIPRP	-0.0761

Sequence	shrunken log2 fold change
RRIRARPPRLPRPRPRPGVSPRP	0.559
RRIRQRPPRLPRPRPRPQSSPRP	0.0994
RRIRGRPPRLPRPRPRPFATPRP	2.68
RRIRHRPPRLPRPRPRPVSDPRP	0.132
RRIRHRPPRLPRPRPRPLLQPRP	0.112
RRIRHRPPRLPRPRPRPMWWPRP	0.177
RRIRQRPPRLPRPRPRPQCMPRP	-0.496
RRIRTRPPRLPRPRPRPDKTPRP	-0.108
RRIRTRPPRLPRPRPRPDDKPRP	-0.294
RRIRNRPPRLPRPRPRPHANPRP	0.0684
RRIRTRPPRLPRPRPRPNQLPRP	-0.101
RRIRNRPPRLPRPRPRPLTKPRP	0.164
RRIRKRPPRLPRPRPRPAILPRP	0.0725
RRIRCRPPRLPRPRPRPDCPPRP	-0.343
RRIRHRPPRLPRPRPRPITKPRP	-0.107
RRIRVRPPRLPRPRPRPEKVPRP	0.13
RRIRARPPRLPRPRPRPCLVPRP	0.0528
RRIRPRPPRLPRPRPRPLSLPRP	0.0584
RRIRCRPPRLPRPRPRPKMMPRP	-0.113
RRIRNRPPRLPRPRPRPHQCPRP	-0.0318
RRIRVRPPRLPRPRPRPGCCPRP	0.385
RRIRSRPPRLPRPRPRPMHMPRP	-0.13
RRIRCRPPRLPRPRPRPKWQPRP	0.0444
RRIRQRPPRLPRPRPRPQDIPRP	0.0203
RRIRNRPPRLPRPRPRPYDWPRP	0.0127

Sequence	shrunken log2 fold change
RRIRYRPPRLPRPRPRPDSMPRP	0.00804
RRIRSRPPRLPRPRPRPATEPRP	0.121
RRIRCRPPRLPRPRPRPYWTPRP	-0.966
RRIRVRPPRLPRPRPRPMHAPRP	-0.00559
RRIRNRPPRLPRPRPRPNVVPRP	-0.122
RRIRHRPPRLPRPRPRPAEKPRP	-0.0153
RRIRQRPPRLPRPRPRPNMEPRP	-0.404
RRIRFRPPRLPRPRPRPTLEPRP	0.197
RRIRDRPPRLPRPRPRPPFSPRP	0.0121
RRIRDRPPRLPRPRPRPGIRPRP	-0.174
RRIRWRPPRLPRPRPRPDQTPRP	-0.00176
RRIRTRPPRLPRPRPRPDQAPRP	-0.0986
RRIRRRPPRLPRPRPRPLVDPRP	0.106
RRIRNRPPRLPRPRPRPEKVPRP	-0.105
RRIRNRPPRLPRPRPRPQGVPRP	0.0991
RRIRPRPPRLPRPRPRPKNTPRP	-0.218
RRIRNRPPRLPRPRPRPNLKPRP	-0.33
RRIRHRPPRLPRPRPRPCIEPRP	-0.00547
RRIRMRPPRLPRPRPRPRPEPRP	1.35
RRIRMRPPRLPRPRPRPITVPRP	0.0226
RRIRHRPPRLPRPRPRPWYWPRP	-0.115
RRIRTRPPRLPRPRPRPSYCPRP	0.0739
RRIRLRPPRLPRPRPRPTLEPRP	-0.244
RRIRYRPPRLPRPRPRPPRHPRP	0.00412
RRIRFRPPRLPRPRPRPVQHPRP	-0.044
